From patent publication US20010006793A1, “MODULATORS OF EUKARYOTIC CASPASES” (priority 1998, published 2001)

Biological target: T1, human caspase-8β (Homo sapiens, UniProt Q14790)
T1 construct: expressed in transfected cells; host or cells: Saccharomyces cerevisiae FY250, single-copy ARS/CEN vector YCpGAL1-caspase-8β-L, GAL1 promoter
Assay: Yeast screening method: suppression of caspase-8β-induced lethality in S. cerevisiae FY250 double transformants on galactose medium
Type: cell-based
Conditions: for identified as a caspase inhibitor (product of human brain cDNA suppressing caspase-8β-induced cell death): FY250 double transformants, GAL1-driven expression, galactose-containing medium; for Caspase Inhibitor: Table 1 Caspase Modulators, identified using the screening method of the invention
From the text: The invention includes a screening method of determining whether a compound is a caspase modulator. […] A difference between the viability indicator of the first cell and the viability indicator of the second cell is an indication that the compound is a caspase modulator.
As described herein, the transformant expresses the caspase when an inducer of the inducible promoter of the caspase vector is provided to the caspase transformant. When the caspase transformant expresses the caspase, cytotoxicity ensues in the caspase transformant. If an inhibitor of the caspase is provided to the caspase transformant prior to the onset of cytotoxicity, the caspase transformant may be enabled to survive expression of the caspase or the onset of cytotoxicity may be delayed.
The gene encoding p35 was cloned into a yeast-based expression vector designated YCpGAL1-U (wherein U designates a URA3 selectable marker) to yield a YCpGAL1-p35-U inhibitor vector. Yeast cells were co-transformed with the inhibitor vector, YCpGAL1-p35-U, and with the caspase vector, YCpGAL1-caspase-8β-L, to yield a double transformant. Double transformants were plated on SC-leucine-uracil medium supplemented with dextrose to repress GAL1 promoter function. Serial ten-fold dilutions of individual double transformants grown in SC-leucine-uracil medium containing dextrose were prepared and spotted onto SC-leucine-uracil medium comprising dextrose or galactose.
Individual viable colonies of double transformant are isolated, and the test vector comprising the unknown cDNA is isolated.
The screening method used in this Example was performed as follows. A yeast double transformant was prepared by transforming S. cerevisiae strain FY250 with two yeast expression vectors. The first yeast expression vector comprised cDNA encoding a self-activating form of human caspase-8β operably linked to a GAL1 promoter and a LEU2 selectable marker. This first vector was a single copy vector and was designated YCpGAL1-caspase-8β-L. A plurality of second yeast expression vectors was used, each comprising a single random human cDNA sequence operably linked to a GAL1 promoter and a URA3 selectable marker. The cDNA sequences used to generate the plurality of second yeast expression vectors were obtained from a library of cDNAs prepared from human brain cells. The second vectors were multicopy vectors.
Double transformants were propagated on plates containing SC-leucine-uracil agar comprising dextrose. Colonies of double transformants were replica plated on plates containing medium comprising galactose, whereby expression of caspase-8β and of any product encoded by the cDNA of the second vector was induced. […] The second vector was recovered from individual colonies of double transformants which were able to survive on the galactose-containing medium and used, along with the first vector, to transform fresh FY250 cells. […] The identity of individual products encoded by the cDNA of individual second vectors was established by determining the nucleotide sequence of the cDNA and comparing the sequence with databases of known human gene sequences, including Genbank, the EST Database, and the Human Genome Database.

T1 sequence (Q14790 1-464 isoform Q14790-2): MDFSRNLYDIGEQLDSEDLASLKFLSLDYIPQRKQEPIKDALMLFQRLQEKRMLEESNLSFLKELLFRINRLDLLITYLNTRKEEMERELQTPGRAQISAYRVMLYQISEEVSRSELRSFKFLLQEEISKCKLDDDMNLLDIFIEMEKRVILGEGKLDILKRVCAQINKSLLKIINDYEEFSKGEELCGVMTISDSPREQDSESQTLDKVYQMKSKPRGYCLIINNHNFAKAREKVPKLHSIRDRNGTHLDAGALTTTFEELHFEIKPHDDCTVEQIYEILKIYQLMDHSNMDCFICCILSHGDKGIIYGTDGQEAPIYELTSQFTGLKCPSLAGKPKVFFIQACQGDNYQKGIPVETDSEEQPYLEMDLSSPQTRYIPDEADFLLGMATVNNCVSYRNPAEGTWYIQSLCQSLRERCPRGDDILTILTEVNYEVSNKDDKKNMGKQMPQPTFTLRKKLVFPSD

B1: Human Death Associated Protein 1: product encoded by human brain cDNA; also known as DAP-1 (protein)
chain: MSSPPEGKLETKAGHPPAVKAGGMRIVQKHPHTGDTKEEKDKDDQEWESPSPPKPTVFISGVIARGDKDFPPAAAQVAHQKPHASMDKHPSPRTQHIQQPRK
- identified as a caspase inhibitor (product of human brain cDNA suppressing caspase-8β-induced cell death): caspase inhibitor
- Caspase Inhibitor: ✓

B2: Human hnRNP D: product encoded by human brain cDNA, identified as caspase inhibitor (protein, UniProt Q14103 2-355, looked up)
Heterogeneous nuclear …: SEEQFGGDGAAAAATAAVGGSAGEQEGAMVAATQGAAAAAGSGAGTGGGTASGGTEGGSAESEGAKIDASKNEEDEGHSNSSPRHSEAATAQREEWKMFIGGLSWDTTKKDLKDYFSKFGEVVDCTLKLDPITGRSRGFGFVLFKESESVDKVMDQKEHKLNGKVIDPKRAKAMKTKEPVKKIFVGGLSPDTPEEKIREYFGGFGEVESIELPMDNKTNKRRGFCFITFKEEEPVKKIMEKKYHNVGLSKCEIKVAMSKEQYQQQQQWGSRGGFAGRARGRGGGPSQNWNQGYSNYWNQGYGNYGYNSQGYGGYGGYDYTGYNNYYGYGDYSNQQSGYGKVSRRGGHQNSYKPY
- identified as a caspase inhibitor (product of human brain cDNA suppressing caspase-8β-induced cell death): caspase inhibitor
- Caspase Inhibitor: ✓

B3: Human Tissue Inhibitor of Metalloprotease-3: product encoded by human brain cDNA, identified as caspase inhibitor (protein)
chain: CTCSPSHPQDAFCNSDIVIRAKVVGKKLVKEGPFGTLVYTIKQMKMYRGFTKMPHVQYIHTEASESLCGLKLEVNKYQYLLTGRVYDGKMYTGLCNFVERWDQLTLSQRKGLNYRYHLGCNCKIKSCYYLPCFVTSKNECLWTDMLSNFGYPGYQSKHYACIRQKGGYCSWYRGWAPPDKSIINATDP
- identified as a caspase inhibitor (product of human brain cDNA suppressing caspase-8β-induced cell death): caspase inhibitor
- Caspase Inhibitor: ✓

B4: Glutamate-Binding Subunit of a Human NMDA Receptor Complex: product encoded by human brain cDNA, identified as caspase inhibitor (protein)
chain: MSHEKSFLVSGDNYPPPNPGYPGGPQPPMPPYAQPPYPGAPYPQPPFQPSPYGQPGYPHGPSPYPQGGYPQGPYPQGGYPQGPYPQEGYPQGPYPQGGYPQGPYPQSPFPPNPYGQPQVFPGQDPDSPQHGNYQEEGPPSYYDNQDFPATNWDDKSIRQAFIRKVFLVLTLQLSVTLSTVSVFTFVAEVKGFVRENVWTYYVSYAVFFISLIVLSCCGDFRRKHPWNLVALSVLTASLSYMVGMIASFYNTEAVIMAVGITTAVCFTVVIFSMQTRYDFTSCMGVLLVSMVVLFIFAILCIFIRNRILEIVYASLGALLFTCFLAVDTQLLLGNKQLSLSPEEYVFAALNLYTDIINIFLYILTIIGRAKE
- Caspase Inhibitor: ✓

B5: Human Ubiquitin C-terminal Hydrolase: product encoded by human brain cDNA; also known as UHX1 (protein)
chain: MAVAPRLFGGLCFRFRDQNPEVAVEGRLPISHSCVGCRRERTAMATVAANPAAAAAAVAAAAAVTEDREPQHEELPGLDSQWRQIENGESGRERPLRAGESWFLVEKHWYKQWEAYVQGGDQDSSTFPGCINNATLFQDEINWRLKEGLVEGEDYVLLPAAAWHYLVSWYGLEHGQPPIERKVIELPNIQKVEVYPVELLLVRHNDLGKSHTVQFSHTDSIGLVLRTARERFLVEPQEDTRLWAKNSEGSLDRLYDTHITVLDAALETGQLIIMETRKKDGTWPSAQLHVMNNNMSEEDEDFKGQPGICGLTNLGNTCFMNSALQCLSNVPQLTEYFLNNCYLEELNFRNPLGMKGEIAEAYADLVKQAWSGHHRSIVPHVFKNKVGHFASQFLGYQQHDSQELLSFLLDGLHEDLNRVKKKEYVELCDAAGRPDQEVAQEAWQNHKRRNDSVIVDTFHGLFKSTLVCPDCGNVSVTFDPFCYLSVPLPISHKRVLEVFFIPMDPRRKPEQHRLVVPKKGKISDLCVALSKHTGISPERMMVADVFSHRFYKLYQLEEPLSSILDRDDIFVYEVSGRIEAIEGSREDIVVPVYLRERTPARDYNNSYYGLMLFGHPLLVSVPRDRFTWEGLYNVLMYRLSRYVTKPNSDDEDDGDEKEDDEEDKDDVPGPSTGGSLRDPEPEQAGPSSGVTNRCPFLLDNCLGTSQWPPRRRRKQLFTLQTVNSNGTSDRTTSPEEVHAQPYIAIDWEPEMKKRYYDEVEAEGYVKHDCVGYVMKKAPVRLQECIELFTTVETLEKENPWYCPSCKQHQLATKKLDLWMLPEILIIHLKRFSYTKFSREKLDTLVEFPIRDLDFSEFVIQPQNESNPELYKYDLIAVSNHYGGMRDGHYTTFACNKDSGQWHYFDDNSVSPVNENQIESKAAYVLFYQRQDVARRLLSPAGSSGAPASPACSSPPSSEFMDVN
- identified as a caspase inhibitor (product of human brain cDNA suppressing caspase-8β-induced cell death): caspase inhibitor
- Caspase Inhibitor: ✓

B6: Human Myelin Basic Protein: product encoded by human brain cDNA, identified as caspase inhibitor (protein)
chain: MASQKRPSQRHGSKYLATASTMDHARHGFLPRHRDTGILDSIGRFFGGDRGAPKRGSGKDSHHPARTAHYGSLPQKSHGRTQDENPVVHFFKNIVTPRTPPPSQGKGRGLSLSRFSWGAEGQRPGFGYGGRASDYKSAHKGFKGVDAQGTLSKIFKLGGRDSRSGSPMARR
- identified as a caspase inhibitor (product of human brain cDNA suppressing caspase-8β-induced cell death): caspase inhibitor
- Caspase Inhibitor: ✓

B7: Viral protein p35: known viral protein caspase inhibitor, expressed from YCpGAL1-p35-U vector (protein)
chain: MCVIFPVEIDVSQTIIRDCQVDKQTRELVYINKIMNTQLTKPVLMMFNISGPIRSVTRKNNNLRDRIKSKVDEQFDQLERDYSDQMDGFHDSIKYFKDEHYSVSCQNGSVLKSKFAKILKSHDYTDKKSIEAYEKYCLPKLVDERNDYYVAVCVLKPGFENGSNQVLSFEYNPIGNKVIVPFAHEINDTGLYEYDVVAYVDSVQFDGEQFEEFVQSLILPSSFKNSEKVLYYNEASKNKSMIYKALEFTTESSWGKSEKYNWKIFCNGFIYDKKSKVLYVKLHNVTSALNKNVILNTIK
- survival of double transformants on galactose-containing test medium (FY250 co-transformed with YCpGAL1-p35-U and YCpGAL1-caspase-8β-L, SC-leucine-uracil medium with galactose): survived on this medium
- Caspase Inhibitor: ✓
